Patent US20100077498A1 (published 2010)
“And” between values parts separate entries of the source, which are not always exact repeats. Equal values may be shown once.

Experiments:
[1] = target: T1, fusion protein of human Fc and the human GFRalpha1 extracellular domain (human, UniProt P56159 25-429, limits assumed); test: ELISA: GFRα1:Fc captured by mouse anti-human Fc, detection with goat anti-GDNF and rabbit anti-goat-AP; given as ED50
T1 construct: extracellular domain; Captured on ELISA wells by a mouse anti-human Fc antibody; The order of the parts follows the printed name GFRα1:Fc; also called GFRα1:Fc fusion protein; GFRα1 ECD; not shown: human Fc
T1 sequence (looked up): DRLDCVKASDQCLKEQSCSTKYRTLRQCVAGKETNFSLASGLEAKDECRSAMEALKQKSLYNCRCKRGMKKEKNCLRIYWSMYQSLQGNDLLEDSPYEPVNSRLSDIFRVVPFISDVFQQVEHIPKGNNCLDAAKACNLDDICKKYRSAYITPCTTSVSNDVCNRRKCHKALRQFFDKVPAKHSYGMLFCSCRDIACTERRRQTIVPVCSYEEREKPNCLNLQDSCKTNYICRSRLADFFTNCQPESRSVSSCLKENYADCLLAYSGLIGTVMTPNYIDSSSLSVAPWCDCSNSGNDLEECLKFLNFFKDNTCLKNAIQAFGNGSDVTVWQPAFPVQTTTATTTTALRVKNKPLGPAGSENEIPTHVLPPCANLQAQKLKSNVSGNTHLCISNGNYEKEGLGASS
Excerpt: FIG. 10. (A) Outline of GFRα1 receptor binding assay. The GFRα1:Fc fusion protein is captured by a mouse anti-human (MAH) Fc antibody. The GDNF, or cTfRMAb-GDNF fusion protein, binds to the GFRα1, and this binding is detected with a goat anti-GDNF antibody and a rabbit anti-goat (RAG) antibody conjugated to alkaline phosphatase (AP). (B) Binding of either GDNF (top panel) or the cTfRMAb-GDNF fusion protein (bottom panel) to the GFRα1 extracellular domain (ECD) is saturable.
The cTfRMAb-GDNF fusion protein is a bi-functional molecule that binds 2 receptors (FIG. 8): (i) the brain capillary endothelial mouse TfR to cause RMT across the mouse BBB in vivo, and (ii) the GFRα1 on neurons, to cause therapeutic actions in brain behind the BBB. The bi-functionality of the cTfRMAb-GDNF fusion protein was tested with binding assays for both the human GFRα1 and the mouse TfR. A mouse anti-human Fc (MAH-Fc) is plated in ELISA wells and captures a fusion protein of human Fc and the human GFRα1 extracellular domain (ECD). The cTfRMAb-GDNF fusion protein, or mature human GDNF, is then added, and these molecules bind to the GFRα1 ECD in proportion to the affinity for this receptor. The binding of the GDNF or the cTfRMAb-GDNF fusion protein is then detected with a goat anti-GDNF antibody, and a rabbit anti-goat (RAG) IgG-alkaline phosphatase (AP) conjugate (FIG. 10A).

[2] = target: T2, mouse transferrin receptor (mouse, UniProt Q62351 1-763); test: radio-receptor assay on mouse fibroblasts, 4 C, displacement of [125I]-8D3 by unlabeled cTfRMAb, non-linear regression
T2 construct: whole, on cells; Mouse fibroblasts were the source of the mouse TfR in the radio-receptor assay; also called mouse TfR; TfR
T2 sequence (Q62351 whole entry): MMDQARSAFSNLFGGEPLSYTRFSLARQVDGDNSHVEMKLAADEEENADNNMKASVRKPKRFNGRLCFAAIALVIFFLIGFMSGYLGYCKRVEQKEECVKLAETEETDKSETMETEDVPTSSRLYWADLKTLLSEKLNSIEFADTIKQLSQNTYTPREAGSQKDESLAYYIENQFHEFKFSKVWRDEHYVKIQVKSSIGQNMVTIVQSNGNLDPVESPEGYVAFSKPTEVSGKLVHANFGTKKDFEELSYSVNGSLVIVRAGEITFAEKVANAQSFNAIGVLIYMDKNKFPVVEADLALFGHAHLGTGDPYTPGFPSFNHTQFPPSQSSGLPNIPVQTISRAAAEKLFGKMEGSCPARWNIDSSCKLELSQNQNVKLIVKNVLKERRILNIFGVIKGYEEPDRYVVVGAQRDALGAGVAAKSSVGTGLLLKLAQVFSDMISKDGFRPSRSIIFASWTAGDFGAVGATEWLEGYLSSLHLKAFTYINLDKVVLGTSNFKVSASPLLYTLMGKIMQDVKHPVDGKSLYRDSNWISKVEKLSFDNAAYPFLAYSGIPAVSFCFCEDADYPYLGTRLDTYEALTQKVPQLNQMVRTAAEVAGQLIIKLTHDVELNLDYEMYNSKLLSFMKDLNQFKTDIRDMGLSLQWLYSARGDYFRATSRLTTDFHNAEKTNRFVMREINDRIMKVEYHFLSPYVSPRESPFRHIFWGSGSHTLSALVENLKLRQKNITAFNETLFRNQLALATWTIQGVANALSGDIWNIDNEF
Protocol: (§1) Mouse TfR radio-receptor assay. Mouse fibroblasts were plated in 24-well cluster dishes (100,000 cells/well) 24 hours before the radio-receptor assay (RRA) of TfRMAb binding to the mouse TfR. The medium was aspirated, the cells washed with phosphate buffered saline (PBS), and 500 μL was added to each well containing 0.15 μCi/mL of [¹²⁵I]-labeled rat 8D3 MAb, and 0.3 to 100 nM concentrations of either unlabeled rat 8D3 MAb or unlabeled cTfRMAb. Following incubation at 4 C for 120 min, the medium was aspirated, the plates washed with cold PBS containing 1% bovine serum albumin (BSA), and the monolayer was lysed with 0.2 mL/well of 1 N NaOH. An aliquot was removed for protein measurement using the bicinchoninic acid (BCA) assay, and the radioactivity in the lysate was determined with a Beckmann gamma counter. The % bound/mg protein was computed from the radioactivity in the cell lysate and the total radioactivity in the medium. The 8D3 self-inhibition binding data were fit by non-linear regression analysis yield either the KD of 8D3 self-inhibition in the binding assay, or the KI of cross-inhibition by the chimeric TfRMAb or the cTfRMAb fusion protein.

[3] = target: T2, mouse transferrin receptor; test: radio-receptor assay on mouse fibroblasts, 4 C, self-inhibition of [125I]-8D3 by unlabeled 8D3, non-linear regression
Protocol: as §1

[4] = target: T2, mouse transferrin receptor; test: radio-receptor assay on mouse fibroblasts, self-inhibition of [125I]-8D3, non-linear regression
Protocol: as §1
(§2) Mouse fibroblasts were used as the source of the mouse TfR, and the ¹²⁵I-labeled rat 8D3 TfRMAb was used as the binding ligand. […]

[5] = target: T2, mouse transferrin receptor; test: radio-receptor assay on mouse fibroblasts, displacement of [125I]-8D3 by unlabeled cTfRMAb-GDNF, non-linear regression
Protocol: as §1, §2

B1: human mature 134 amino acid glial derived neurotrophic factor (ligand, UniProt P39905 78-211, looked up)
chain: SPDKQMAVLPRRERNRQAAAANPENSRGKGRRGQRGKNRGCVLTAIHLNVTDLGLGYETKEELIFRYCSGSCDAAETTYDKILKNLSRNRRLVSDKVGQACCRPIAFDDDLSFLDDNLVYHILRKHSAKRCGCI
notes: mature; also called GDNF; mature human GDNF
EC50 [1]: 1.03 nM

B2: chimeric monoclonal antibody against the mouse transferrin receptor (rat 8D3 variable regions, mouse IgG1/kappa constant regions) (antibody, V domains shown)
VH: EVQLVESGGGLVQPGNSLTLSCVASGFTFSNYGMHWIRQAPKKGLEWIAMIYYDSSKMNYADTVKGRFTISRDNSKNTLYLEMNSLRSEDTAMYYCAVPTSHYVVDVWGQGVSVTVSS
VL: DIQMTQSPASLSASLEEIVTITCQASQDIGNWLAWYQQKPGKSPQLLIYGATSLADGVPSRFSGSRSGTQFSLKISRVQVEDIGIYYCLQAYNTPWTFGGGTKLELKR
notes: also called chimeric TfRMAb; cTfRMAb
Ki [2]: 2.6 nM

B3: rat 8D3 monoclonal antibody against the mouse transferrin receptor, hybridoma generated (antibody, V domains shown)
VH: B2 VH
VL: DIQMTQSPASLSASLEEIVTITCQASQDIGNWLAWYQQKPGKSPQLLIYGATSLADGVPSRFSGSRSGTQFSLKISRVQVEDIGIYYCLQAYNTPWTFGGGTKLELK
modifications: In part of the assays the antibody carried 125I (radio-iodinated tyrosines); the letters do not show this.
notes: Rat hybridoma antibody purified on protein G; also called 8D3 MAb; 8D3 TfRMAb
Kd [3]: 2.3 nM
Kd [4]: 5 nM and 3.2 nM

B4: cTfRMAb-GDNF fusion protein (human mature GDNF fused to the carboxyl terminus of the heavy chain of the chimeric MAb against the mouse TfR) (other)
heavy: EVQLVESGGGLVQPGNSLTLSCVASGFTFSNYGMHWIRQAPKKGLEWIAMIYYDSSKMNYADTVKGRFTISRDNSKNTLYLEMNSLRSEDTAMYYCAVPTSHYVVDVWGQGVSVTVSSAKTTPPSVYPLAPGSAAQTNSMVTLGCLVKGYFPEPVTVTWNSGSLSSGVHTFPAVLQSDLYTLSSSVTVPSSTWPSETVTCNVAHPASSTKVDKKIVPRDCGCKPCICTVPEVSSVFIFPPKPKDVLTITLTPKVTCVVVDISKDDPEVQFSWFVDDVEVHTAQTQPREEQFNSTFRSVSELPIMHQDWLNGKEFKCRVNSAAFPAPIEKTISKTKGRPKAPQVYTIPPPKEQMAKDKVSLTCMITDFFPEDITVEWQWNGQPAENYKNTQPIMDTDGSYFVYSKLNVQKSNWEAGNTFTCSVLHEGLHNHHTEKSLSHSPGSSSSPDKQMAVLPRRERNRQAAAANPENSRGKGRRGQRGKNRGCVLTAIHLNVTDLGLGYETKEELIFRYCSGSCDAAETTYDKILKNLSRNRRLVSDKVGQACCRPIAFDDDLSFLDDNLVYHILRKHSAKRCGCI
light: DIQMTQSPASLSASLEEIVTITCQASQDIGNWLAWYQQKPGKSPQLLIYGATSLADGVPSRFSGSRSGTQFSLKISRVQVEDIGIYYCLQAYNTPWTFGGGTKLELKRADAAPTVSIFPPSSEQLTSGGASVVCFLNNFYPKDINVKWKIDGSERQNGVLNSWTDQDSKDSTYSMSSTLTLTKDEYERHNSYTCEATHKTSTSPIVKSFNRGEC
notes: Hetero-tetramer of 2 light chains and 2 fusion heavy chains; expressed in COS cells, purified on protein G; also called cTrFMAb-GDNF
Ki [5]: 3 nM
EC50 [1]: 2.55 nM
